In patent publication US20260250318A1, “COMPOSITIONS AND METHODS FOR CROSSING THE BLOOD BRAIN BARRIER” (VOYAGER THERAPEUTICS, INC., priority 2022, published 2026):

How the values were obtained:
[1] = test system: N-linked galactose on HeLa cells; experiment: Transduction of HeLa cells after neuraminidase treatment (Luc2 activity); format: cell-based, human; settings: Neuraminidase 1000 mU/mL
ALPL [2] = target: T1, ALPL (Homo sapiens, UniProt P05186); format: cell-based; design: expressed in transfected cells; host or cells: HEK 293T; settings: viral genomes, 2 or 3 hours post-incubation, relative to pCMV6
T1 sequence (P05186 18-501): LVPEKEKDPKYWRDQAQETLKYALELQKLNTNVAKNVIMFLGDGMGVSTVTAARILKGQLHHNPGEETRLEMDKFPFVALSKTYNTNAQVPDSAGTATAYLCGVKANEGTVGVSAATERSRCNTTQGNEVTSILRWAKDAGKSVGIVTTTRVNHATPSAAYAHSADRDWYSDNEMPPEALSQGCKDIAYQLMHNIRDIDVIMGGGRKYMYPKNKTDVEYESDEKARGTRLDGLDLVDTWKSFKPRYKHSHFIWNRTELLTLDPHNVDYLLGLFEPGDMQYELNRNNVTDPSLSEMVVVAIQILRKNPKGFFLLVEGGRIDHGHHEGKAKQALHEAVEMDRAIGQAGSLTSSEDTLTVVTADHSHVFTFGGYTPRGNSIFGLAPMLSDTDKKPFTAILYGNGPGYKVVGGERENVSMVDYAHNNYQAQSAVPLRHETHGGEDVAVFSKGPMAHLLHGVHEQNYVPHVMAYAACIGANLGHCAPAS
Protocol: Binding and internalization of AAV capsid variants comprising the TTM-001 capsid variant, the TTM-002 capsid variant, or the AAV9 control capsid was also investigated in cells engineered to express ALPL. HEK 293T cells were transfected via calcium phosphate transfection with a plasmid expressing ALPL, an AAVR positive control, or a pCMV6 negative control. At 24 hours post-transfection, the HEK 293T cells expressing the ALPL receptor were incubated with an AAV particle comprising the TTM-001 capsid variant, the TTM-002 capsid variant, or an AAV9 control capsid protein, expressing a GFP payload. At 2 or 3-hours post-incubation, cells were washed to remove unbound AAV particles and DNA was extracted to quantify viral genomes.

[3] = test system: N-linked galactose on HeLa cells; experiment: Transduction of HeLa cells after neuraminidase treatment (Luc2 activity); format: cell-based, human
Protocol: Primary glycan receptors have been identified for various AAV serotypes, including AAV9 which binds N-linked galactose. In order to investigate the ability of TTM-001 and TTM-002 AAV9 variants to retain this natural glycan binding, HeLa cells were treated with increasing concentrations of Neuraminidase ([…]), which cleaves N-sialic acid and exposes N-galactose. The treated cells were then transduced with AAV particles comprising the TTM-001 capsid variant (AAV_TTM-001), the TTM-002 capsid variant (AAV_TTM-002), or an AAV9 control (AAV_AAV9cntl), transduction was measured by quantification of Luc2 activity (RLU), and data was normalized relative to the no neuraminidase control.

ALPL [4] = target: T1, ALPL; experiment: SPR (Biacore 8K) binding of peptide ligands to ALPL; settings: 50 μM peptides or 250 nM capsids flowed over
[5] = test system: brain, spinal cord, liver and peripheral tissues; experiment: Individual capsid characterization in mice (qPCR transgene mRNA, viral DNA, IVIS, anti-GFP IHC)
Protocol: AAV particles were generated with each of these capsid variants encapsulating a luciferase-EGFP transgene driven by a CMV/chicken beta actin promoter in a single stranded viral genome. Each capsid variant and AAV9 control were tested by intravenously administering by tail vein injection, the AAV particle formulation at 5e11 VG/dose (2.5E13 vg/kg) to three female BALB/c mice. The in-life period was 28 days and then various CNS and peripheral tissues were collected for measuring transgene mRNA, transgene protein, and viral DNA (biodistribution).
At 28 days post-injection of the AAV particles encapsulated in the TTM-001 capsid variant (AAV_TTM-001), mice were injected with luciferin and their brains were harvested for IVIS imaging.
The brains isolated from mice injected with the AAV particles encapsulated in the TTM-001 capsid variant (AAV_TTM-001) or the TTM-002 capsid variant (AAV_TTM-002) were assayed by qPCR for the presence of transgene RNA as a measure of transgene expression, and the presence of viral DNA as a measure of viral genome levels. Data were provided as fold over AAV9 (Table 12).
The brain tissues and spinal cords of the mice were also subjected to anti-GFP immunohistochemistry staining to evaluate overall CNS tropism and biodistribution.
Peripheral tissues were also isolated from the mice intravenously injected with the AAV particles encapsulated in the TTM-001 capsid variant or the TTM-002 capsid variant for analysis by qPCR and/or GFP immunohistochemical staining. Transgene mRNA levels and viral genome DNA levels were quantified in the liver by qPCR and the fold over AAV9 was calculated for each capsid variant (Table 12).

[6] = BALB/c mice, tail vein 5e11 VG/dose, 28 days, qPCR, brain
[7] = BALB/c mice, tail vein 5e11 VG/dose, 28 days, qPCR, liver

B1: TTM-002: AAV9 capsid variant comprising HDSPHK (SEQ ID NO: 2) in loop IV (protein)
chain 1: MAADGYLPDWLEDNLSEGIREWWALKPGAPQPKANQQHQDNARGLVLPGYKYLGPGNGLDKGEPVNAADAAALEHDKAYDQQLKAGDNPYLKYNHADAEFQERLKEDTSFGGNLGRAVFQAKKRLLEPLGLVEEAAKTAPGKKRPVEQSPQEPDSSAGIGKSGAQPAKKRLNFGQTGDTESVPDPQPIGEPPAAPSGVGSLTMASGGGAPVADNNEGADGVGSSSGNWHCDSQWLGDRVITTSTRTWALPTYNNHLYKQISNSTSGGSSNDNAYFGYSTPWGYFDFNRFHCHFSPRDWQRLINNNWGFRPKRLNFKLFNIQVKEVTDNNGVKTIANNLTSTVQVFTDSDYQLPYVLGSAHEGCLPPFPADVFMIPQYGYLTLNDGSQAVGRSSFYCLEYFPSQMLRTGNNFQFSYEFENVPFHSSYAHSQSLDRLMNPLIDQYLYYLSKTINGHDSPHKSGQNQQTLKFSVAGPSNMAVQGRNYIPGPSYRQQRVSTTVTQNNNSEFAWPGASSWALNGRNSLMNPGPAMASHKEGEDRFFPLSGSLIFGKQGTGRDNVDADKVMITNEEEIKTTNPVATESYGQVATNHQSAQAQAQTGWVQNQGILPGMVWQDRDVYLQGPIWAKIPHTDGNFHPSPLMGGFGMKHPPPQILIKNTPVPADPPTAFNKDKLNSFITQYSTGQVSVEIEWELQKENSKRWNPEIQYTSNYYKSNNVEFAVNTEGVYSEPRPIGTRYLTRNL
chain 2: GHDSPHKSGQNQQT
- fold change in Luc2 activity (RLU) relative to the no neuraminidase control [1]: 13.7 fold
- fold increase in binding/internalization in cells expressing ALPL (ALPL [2]): 6 fold
- fold change in Luc2 activity (RLU) relative to the no neuraminidase control ([3]; Neuraminidase 5 mU/mL): 9.6 fold
- fold change in Luc2 activity (RLU) relative to the no neuraminidase control ([3]; Neuraminidase 50 mU/mL): 12.5 fold
- fold change in Luc2 activity (RLU) relative to the no neuraminidase control ([3]; Neuraminidase 500 mU/mL): 13.9 fold
- binding to ALPL by SPR, His-tagged ALPL captured on chip (ALPL [4]): Binding to ALPL was detected
- DNA (viral genome quantification), Brain, relative to the AAV9 control [5, 6]: 47.2810 fold over AAV9
- mRNA (transgene expression), Brain, relative to the AAV9 control [5, 6]: 66.2161 fold over AAV9
- DNA (viral genome quantification), Liver, relative to the AAV9 control [5, 7]: 0.0277 fold over AAV9
- mRNA (transgene expression), Liver, relative to the AAV9 control [5, 7]: 0.2016 fold over AAV9
- anti-GFP immunohistochemistry staining in brain and spinal cord ([5]; compared to AAV9 control): significantly stronger staining and payload expression
- transgene mRNA levels in the brain, fold over AAV9 ([5]; qPCR, 28 days, 5e11 VG/dose IV): 66 fold
- transgene mRNA levels in the liver compared to AAV9 ([5]; qPCR, liver): greatly reduced
- viral genome DNA levels in the liver compared to AAV9 ([5]; qPCR, liver): greatly reduced
